According to PMC9972567:

Molecular target: Ep300 (UniProt B2RWS6)
Assay: anti-V5 IP, Ep300 immunoblot
Conditions: reference: wild type; sites S656

Substance: PIMT/TGS1 (human PIMT-V5) (from UniProt Q96RS0) S656A
- binding against the reference: weaker
